This passage reports IC50 of inhibition of NT5E on MDA-MB-231 cells, ATP and IC50 of inhibition of NT5E on MDA-MB-231 cells, no ATP results from patent US20260022186A1.

The target in the assay is T1, human NT5E expressed on MDA-MB-231 cells (human) (UniProt P21589).
T1 sequence (looked up): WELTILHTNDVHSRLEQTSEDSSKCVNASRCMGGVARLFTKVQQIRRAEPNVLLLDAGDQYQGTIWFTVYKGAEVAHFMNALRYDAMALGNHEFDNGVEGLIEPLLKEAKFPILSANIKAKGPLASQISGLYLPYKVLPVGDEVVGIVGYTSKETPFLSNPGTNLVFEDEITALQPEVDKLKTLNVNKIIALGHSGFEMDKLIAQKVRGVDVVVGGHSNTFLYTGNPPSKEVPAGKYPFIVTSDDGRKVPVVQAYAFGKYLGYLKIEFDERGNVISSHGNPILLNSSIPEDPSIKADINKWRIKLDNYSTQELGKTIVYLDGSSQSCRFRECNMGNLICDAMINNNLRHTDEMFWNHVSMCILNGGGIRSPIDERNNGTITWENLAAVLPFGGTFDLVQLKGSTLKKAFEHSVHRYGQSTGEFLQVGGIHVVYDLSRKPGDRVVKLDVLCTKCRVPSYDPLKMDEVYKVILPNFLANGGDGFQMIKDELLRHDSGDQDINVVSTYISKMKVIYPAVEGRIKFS
In words: cell-based or functional assay.

Take BMS986179 IgG (antibody): the IC50 of inhibition of NT5E on MDA-MB-231 cells, ATP amounted to 1100 pM and the IC50 of inhibition of NT5E on MDA-MB-231 cells, no ATP came out at 600 pM.
